Experimental data published in US20110177070A1 (EMERGENT PRODUCT DEVELOPMENT SEATLLE, published 2011).

T1: recombinant human sIL-6R (human, UniProt P08887 20-358, limits assumed)
T1 construct: Bought soluble receptor; also called human soluble IL6R; IL6R alone
T1 sequence (looked up): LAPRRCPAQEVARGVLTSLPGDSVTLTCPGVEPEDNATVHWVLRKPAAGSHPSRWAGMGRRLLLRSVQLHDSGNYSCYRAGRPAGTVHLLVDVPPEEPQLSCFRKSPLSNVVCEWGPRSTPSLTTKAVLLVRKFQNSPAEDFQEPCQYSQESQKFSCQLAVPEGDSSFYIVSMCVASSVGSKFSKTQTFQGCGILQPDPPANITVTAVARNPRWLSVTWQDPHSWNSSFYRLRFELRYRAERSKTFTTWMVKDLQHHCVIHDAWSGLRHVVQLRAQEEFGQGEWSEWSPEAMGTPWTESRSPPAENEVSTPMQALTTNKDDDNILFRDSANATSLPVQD

B1: Xceptor fusion protein TRU(XT6)-1058 (Fc fusion)
chain: LPAQVAFTPYAPEPGSTCRLREYYDQTAQMCCSKCSPGQHAKVFCTKTSDTVCDSCEDSTYTQLWNWVPECLSCGSRCSSDQVETQACTREQNRICTCRPGWYCALSKQEGCRLCAPLRKCRPGFGVARPGTETSDVVCKPCAPGTFSNTTSSTDICRPHQICNVVAIPGNASMDAVCTSTSPTRSMAPGAVHLPQPVSTRSQHTQPTPEPSTAPSTSFLLPMGPSPPAEGSTGDTGEPKSSDKTHTCPPCPAPEAAGAPSVFLFPPKPKDTLMISRTPEVTCVVVDVSHEDPEVKFNWYVDGVEVHNAKTKPREEQYNSTYRVVSVLTVLHQDWLNGKAYACAVSNKALPAPIEKTISKAKGQPREPQVYTLPPSRDELTKNQVSLTCLVKGFYPSDIAVEWESNGQPENNYKTTPPVLDSDGSFFLYSKLTVDKSRWQQGNVFSCSVMHEALHNHYTQKSLSLSPGQRHNNSSLNTRTQKARHSPNSEVQLLESGGGLVQPGGSLRLSCAASGFTFSMYTMHWVRQAPGKGLEWVSWISPSGGWTKYADSVKGRFTISRDNSKNTLYLQMNSLRAEDTAVYYCAVSPWGGPFDYWGQGTLVTVSSGGGGSGGGGSGGGGSQDIQMTQSPSTLSASVGDRVTITCRASQSISSWLAWYQQKPGKAPKLLIYKASTLESGVPSRFSAGGSGTEFTLTISSLQPDDFGTYYCQQYNSYSLTFGGGTKVEII
B2: Xceptor fusion protein TRU(X6T)-1019 (Fc fusion)
chain: EVQLLESGGGLVQPGGSLRLSCAASGFTFSWYLMHWVRQAPGKGLEWVSGIWPSGGHTLYADSVKGRFTISRDNSKNTLYLQMNSLRAEDTAVYYCAREPLLWFGELSYNWFDPWGQGTLVTVSSGGGGSGGGGSGGGGSQDIQMTQSPSSVSASVGDRVTITCRASQGISSWLAWYQQKPGKAPKLLIYAASSLQSGVPSRFSGSGSGTDFTLTISSLQPEDFATYYCQQANSFPLTFGGGTKVEIKTGEPKSSDKTHTCPPCPAPEAAGAPSVFLFPPKPKDTLMISRTPEVTCVVVDVSHEDPEVKFNWYVDGVEVHNAKTKPREEQYNSTYRVVSVLTVLHQDWLNGKAYACAVSNKALPAPIEKTISKAKGQPREPQVYTLPPSRDELTKNQVSLTCLVKGFYPSDIAVEWESNGQPENNYKTTPPVLDSDGSFFLYSKLTVDKSRWQQGNVFSCSVMHEALHNHYTQKSLSLSPGQRHNNSSLNTRTQKARHSPNSLPAQVAFTPYAPEPGSTCRLREYYDQTAQMCCSKCSPGQHAKVFCTKTSDTVCDSCEDSTYTQLWNWVPECLSCGSRCSSDQVETQACTREQNRICTCRPGWYCALSKQEGCRLCAPLRKCRPGFGVARPGTETSDVVCKPCAPGTFSNTTSSTDICRPHQICNVVAIPGNASMDAVCTSTSPTRSMAPGAVHLPQPVSTRSQHTQPTPEPSTAPSTSFLLPMGPSPPAEGSTGD
B3: Xceptor fusion protein TRU(XT6)-1019 (Fc fusion)
chain: LPAQVAFTPYAPEPGSTCRLREYYDQTAQMCCSKCSPGQHAKVFCTKTSDTVCDSCEDSTYTQLWNWVPECLSCGSRCSSDQVETQACTREQNRICTCRPGWYCALSKQEGCRLCAPLRKCRPGFGVARPGTETSDVVCKPCAPGTFSNTTSSTDICRPHQICNVVAIPGNASMDAVCTSTSPTRSMAPGAVHLPQPVSTRSQHTQPTPEPSTAPSTSFLLPMGPSPPAEGSTGDTGEPKSSDKTHTCPPCPAPEAAGAPSVFLFPPKPKDTLMISRTPEVTCVVVDVSHEDPEVKFNWYVDGVEVHNAKTKPREEQYNSTYRVVSVLTVLHQDWLNGKAYACAVSNKALPAPIEKTISKAKGQPREPQVYTLPPSRDELTKNQVSLTCLVKGFYPSDIAVEWESNGQPENNYKTTPPVLDSDGSFFLYSKLTVDKSRWQQGNVFSCSVMHEALHNHYTQKSLSLSPGQRHNNSSLNTRTQKARHSPNSEVQLLESGGGLVQPGGSLRLSCAASGFTFSWYLMHWVRQAPGKGLEWVSGIWPSGGHTLYADSVKGRFTISRDNSKNTLYLQMNSLRAEDTAVYYCAREPLLWFGELSYNWFDPWGQGTLVTVSSGGGGSGGGGSGGGGSQDIQMTQSPSSVSASVGDRVTITCRASQGISSWLAWYQQKPGKAPKLLIYAASSLQSGVPSRFSGSGSGTDFTLTISSLQPEDFATYYCQQANSFPLTFGGGTKVEIK
notes: also called Xceptor TNFRSF1B::anti-HIL6
B4: Xceptor fusion protein TRU(XT6)-1002 (Fc fusion)
chain: LPAQVAFTPYAPEPGSTCRLREYYDQTAQMCCSKCSPGQHAKVFCTKTSDTVCDSCEDSTYTQLWNWVPECLSCGSRCSSDQVETQACTREQNRICTCRPGWYCALSKQEGCRLCAPLRKCRPGFGVARPGTETSDVVCKPCAPGTFSNTTSSTDICRPHQICNVVAIPGNASMDAVCTSTSPTRSMAPGAVHLPQPVSTRSQHTQPTPEPSTAPSTSFLLPMGPSPPAEGSTGDTGEPKSSDKTHTCPPCPAPEAAGAPSVFLFPPKPKDTLMISRTPEVTCVVVDVSHEDPEVKFNWYVDGVEVHNAKTKPREEQYNSTYRVVSVLTVLHQDWLNGKAYACAVSNKALPAPIEKTISKAKGQPREPQVYTLPPSRDELTKNQVSLTCLVKGFYPSDIAVEWESNGQPENNYKTTPPVLDSDGSFFLYSKLTVDKSRWQQGNVFSCSVMHEALHNHYTQKSLSLSPGQRHNNSSLNTRTQKARHSPNSEVQLLESGGGLVQPGGSLRLSCAASGFTFSFYQMHWVRQAPGKGLEWVSGIYPSGGYTKYADSVKGRFTISRDNSKNTLYLQMNSLRAEDTAVYYCARDLGYGSSWYYFDYWGQGTLVTVSSGGGGSGGGGSGGGGSQSALTQPASVSGSPGQSITISCSGTDSDVGGYNHVSWYQQHPGKAPKLIIYDVDHRPSGISNRFSGSKSGNTASLTISGLQAEDEADYYCSSYRSGSTYVFGTGTKVTVL
notes: as for B3

Target: T1, recombinant human sIL-6R
Experiment: sandwich ELISA: Xceptor captured on anti-human IgG-Fc, sIL-6R, anti-human IL-6R-biotin
Method: Added to each well of a 96-well plate was 100 μl goat anti-human IgG-Fc (ICN Pharmaceuticals, Costa Mesa, Calif.) from a 2 μg/ml solution in PBS, pH 7.2-7.4, The plates were covered, and incubated overnight at 4° C. After washing four times with PBS-T, 250 μl Blocking buffer (PBS-T with 3% BSA or 10% normal goat serum) was added to each well, the plate was covered, and incubated at room temperature for 2 hours (or at 4° C. overnight). After washing the plate three times with PBS-T, added in duplicate wells to the anti-human IgG-Fc coated plate was 100 μl/well Xceptor TNFRSF1B::anti-HIL6 samples, positive control anti-human IL-6R(R&D Systems, Minneapolis, Minn.) and negative controls human IgG or human gp130-Fc chimera (R&D Systems), each serially diluted three-fold in Working buffer starting at 300 ng/ml, the plate was covered, and incubated at room temperature for about 1 to 2 hours. After washing the plate five times with PBS-T, added in duplicate wells was 100 μl/well recombinant human sIL-6R(R&D Systems) from a 75 pM solution in Working buffer, the plate was covered, and incubated at room temperature for about 1 to 2 hours. After washing the plate five times with PBS-T, added 100 μl/well anti-human IL-6R-biotin (R&D Systems) from a 100 ng/ml solution in Working buffer, the plate was covered, and incubated at room temperature for about 1 to 2 hours. After washing the plate five times with PBS-T, 100 μl per well horse radish peroxidase-conjugated streptavidin (Zymed, San Francisco, Calif.) diluted 1:4,000 in Working buffer was added, the plate was covered, and incubated at room temperature for 30 minutes. After washing the plate six times with PBS-T, 100 μl per well 3,3,5,5-tetramentylbenzidine (TMB) substrate solution (Pierce, Rockford, Ill.) was added for about 3 to 5 minutes and then the reaction was stopped with 50 μl Stop buffer (1N H₂SO₄) per well. The absorbance of each well was read at 450 nm.

Binder	binding result
B1	no binding (tested: Xceptor from 300 ng/ml; sIL-6R 75 pM)
B2	no binding (tested: Xceptor from 300 ng/ml; sIL-6R 75 pM)
B3	no binding (tested: Xceptor from 300 ng/ml; sIL-6R 75 pM)
B4	no binding (tested: Xceptor from 300 ng/ml; sIL-6R 75 pM)

Target: T2, recombinant human TNF-α (human, UniProt P01375 77-233)
T2 construct: also called rhTNF-α
Experiment: sandwich ELISA: Xceptor captured on anti-human IgG-Fc, 2 ng/ml TNF-α, anti-human TNF-α-biotin
Method: Added to each well of a 96-well plate was 100 μl goat anti-human IgG-Fc (ICN Pharmaceuticals, Costa Mesa, Calif.) from a 2 μg/ml solution in PBS, pH 7.2-7.4. The plate was covered, and incubated overnight at 4° C. After washing four times with PBS-T, 250 μl Blocking buffer was added to each well, the plate was covered, and incubated at room temperature for 2 hours (or at 4° C. overnight). After washing the plate three times with PBS-T, added in duplicate wells to the anti-human IgG-Fc coated plate was 100 μl/well Xceptor TNFRSF1B::anti-HIL6 samples, positive controls Enbrel® (etanercept) and recombinant human TNFR2 (TNFRSF1B)-Fc chimera (R&D Systems, Minneapolis, Minn.), and negative controls human IgG or human gp130-Fc chimera (R&D Systems), each serially diluted three-fold in Working buffer starting at 300 ng/ml, the plate was covered, and incubated at room temperature for about 1 to 2 hours. After washing the plate five times with PBS-T, added in duplicate wells was 100 μl/well recombinant human TNF-α (R&D Systems) from a 2 ng/ml solution in Working buffer, the plate was covered, and incubated at room temperature for about 1 to 2 hours. After washing the plate five times with PBS-T, added 100 μl/well anti-human TNF-α-biotin (R&D Systems) from a 200 ng/ml solution in Working buffer, the plate was covered, and incubated at room temperature for about 1 to 2 hours. After washing the plate five times with PBS-T, 100 μl per well horse radish peroxidase-conjugated streptavidin (Jackson ImmunoResearch, West Grove, Pa.) diluted 1:1,000 in Working buffer was added, the plate was covered, and incubated at room temperature for 30 minutes. After washing the plate six times with PBS-T, 100 μl per well 3,3,5,5-tetramentylbenzidine (TMB) substrate solution (Pierce, Rockford, Ill.) was added for about 3 to 5 minutes and then the reaction was stopped with 50 μl Stop buffer (1N H₂SO₄) per well. The absorbance of each well was read at 450 nm.

T2 sequence (P01375 77-233 limits assumed): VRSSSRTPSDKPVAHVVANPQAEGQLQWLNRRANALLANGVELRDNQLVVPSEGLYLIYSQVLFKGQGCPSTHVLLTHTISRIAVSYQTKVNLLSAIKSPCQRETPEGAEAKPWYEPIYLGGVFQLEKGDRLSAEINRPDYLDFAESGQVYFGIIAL

Binder	binding result
B1	binds
B2	binds
B3	binds
B4	binds
